This passage reports OD results from patent publication CN111574631A.

Test [1] deals with 硫氧还蛋白(Thioredoxin，Trx). Kind of test: indirect ELISA, Trx coated at 1 ug/ml, antibody 1000 ng/ml, goat anti-mouse IgG-HRP, OD450 (ref 630). For orientation: An ELISA detects its analyte on a solid surface through an enzyme-linked reagent.
The target in test [2] is 硫氧还蛋白(Thioredoxin，Trx). Kind of test: indirect ELISA, Trx coated at 1 ug/ml, antibody 125 ng/ml, goat anti-mouse IgG-HRP, OD450 (ref 630).
The target in test [3] is 硫氧还蛋白(Thioredoxin，Trx). Kind of test: indirect ELISA, Trx coated at 1 ug/ml, antibody 0 ng/ml (blank well), goat anti-mouse IgG-HRP, OD450 (ref 630).
Test [4] concerns the target 硫氧还蛋白(Thioredoxin，Trx). Kind of test: indirect ELISA, Trx coated at 1 ug/ml, antibody 1.95 ng/ml, goat anti-mouse IgG-HRP, OD450 (ref 630).
Test [5] has as its target 硫氧还蛋白(Thioredoxin，Trx). Put plainly: indirect ELISA, Trx coated at 3 ug/ml, supernatant of transiently transfected CHO cells diluted 1000-fold, goat anti-mouse-HRP, OD450 (ref 630).
The target in test [6] is 硫氧还蛋白(Thioredoxin，Trx). Kind of test: indirect ELISA, Trx coated at 1 ug/ml, antibody 15.63 ng/ml, goat anti-mouse IgG-HRP, OD450 (ref 630).

硫氧还蛋白(Thioredoxin，Trx), sequence (P0AA25 2-109): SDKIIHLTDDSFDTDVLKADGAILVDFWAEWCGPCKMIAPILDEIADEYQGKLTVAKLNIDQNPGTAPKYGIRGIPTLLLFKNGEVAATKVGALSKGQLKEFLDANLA

B1: 实施例4的硫氧还蛋白的单克隆抗体(WT) (antibody, mouse IgG1, kappa, V domains shown)
VH: EVQLQQSGPMLVKPGASVTISCKASGFTITDYNLHWVRQSHGKSLEWIGYITSYNGGTGYNQKFKTKATLTVDKSSTTAYMELRSLTSDDSALYYCARNFRNYFEHWGQGTTLTVSS
VL: DIQMTQPTSSLSASLGDRVTISCRASQDLYNSINWYQQKPDGTVKLLIYYTSRIHSGVPSRFSGSGSGTDYSLTISNLEQEDIATYFCQQGNSIPRTFGGGTKLEIKR
In the case of B1, the OD is 2.31 OD with 硫氧还蛋白(Thioredoxin，Trx) [1]; 2.14 OD in the test with 硫氧还蛋白(Thioredoxin，Trx) [2]; 0.057 OD with 硫氧还蛋白(Thioredoxin，Trx) [3]; 0.488 OD in the test with 硫氧还蛋白(Thioredoxin，Trx) [4]; > 1 OD in the test with 硫氧还蛋白(Thioredoxin，Trx) [5]; 1.62 OD with 硫氧还蛋白(Thioredoxin，Trx) [6].
